From paper PMC7367873, “Dissecting the sequence determinants for dephosphorylation by the catalytic subunits of phosphatases PP1 and PP2A” (Nature Communications, 2020)

B1: CDC25B (protein, UniProt P30305 1-580, looked up)
M-phase inducer phosphatase 2: MEVPQPEPAPGSALSPAGVCGGAQRPGHLPGLLLGSHGLLGSPVRAAASSPVTTLTQTMHDLAGLGSETPKSQVGTLLFRSRSRLTHLSLSRRASESSLSSESSESSDAGLCMDSPSPMDPHMAEQTFEQAIQAASRIIRNEQFAIRRFQSMPVRLLGHSPVLRNITNSQAPDGRRKSEAGSGAASSSGEDKENDGFVFKMPWKPTHPSSTHALAEWASRREAFAQRPSSAPDLMCLSPDRKMEVEELSPLALGRFSLTPAEGDTEEDDGFVDILESDLKDDDAVPPGMESLISAPLVKTLEKEEEKDLVMYSKCQRLFRSPSMPCSVIRPILKRLERPQDRDTPVQNKRRRSVTPPEEQQEAEEPKARVLRSKSLCHDEIENLLDSDHRELIGDYSKAFLLQTVDGKHQDLKYISPETMVALLTGKFSNIVDKFVIVDCRYPYEYEGGHIKTAVNLPLERDAESFLLKSPIAPCSLDKRVILIFHCEFSSERGPRMCRFIRERDRAVNDYPSLYYPEMYILKGGYKEFFPQHPNFCEPQDYRPMNHEAFKDELKTFRLKTRSWAGERSRRELCSRLQDQ
B2: PPP1R3D (protein, UniProt O95685 1-299, looked up)
Protein phosphatase 1 …: MSRGPSSAVLPSALGSRKLGPRSLSCLSDLDGGVALEPRACRPPGSPGRAPPPTPAPSGCDPRLRPIILRRARSLPSSPERRQKAAGAPGAACRPGCSQKLRVRFADALGLELAQVKVFNAGDDPSVPLHVLSRLAINSDLCCSSQDLEFTLHCLVPDFPPPVEAADFGERLQRQLVCLERVTCSDLGISGTVRVCNVAFEKQVAVRYTFSGWRSTHEAVARWRGPAGPEGTEDVFTFGFPVPPFLLELGSRVHFAVRYQVAGAEYWDNNDHRDYSLTCRNHALHMPRGECEESWIHFI
B3: KIF23 (protein, UniProt Q02241 1-960, looked up)
Kinesin-like protein KIF23: MKSARAKTPRKPTVKKGSQTNLKDPVGVYCRVRPLGFPDQECCIEVINNTTVQLHTPEGYRLNRNGDYKETQYSFKQVFGTHTTQKELFDVVANPLVNDLIHGKNGLLFTYGVTGSGKTHTMTGSPGEGGLLPRCLDMIFNSIGSFQAKRYVFKSNDRNSMDIQCEVDALLERQKREAMPNPKTSSSKRQVDPEFADMITVQEFCKAEEVDEDSVYGVFVSYIEIYNNYIYDLLEEVPFDPIKPKPPQSKLLREDKNHNMYVAGCTEVEVKSTEEAFEVFWRGQKKRRIANTHLNRESSRSHSVFNIKLVQAPLDADGDNVLQEKEQITISQLSLVDLAGSERTNRTRAEGNRLREAGNINQSLMTLRTCMDVLRENQMYGTNKMVPYRDSKLTHLFKNYFDGEGKVRMIVCVNPKAEDYEENLQVMRFAEVTQEVEVARPVDKAICGLTPGRRYRNQPRGPVGNEPLVTDVVLQSFPPLPSCEILDINDEQTLPRLIEALEKRHNLRQMMIDEFNKQSNAFKALLQEFDNAVLSKENHMQGKLNEKEKMISGQKLEIERLEKKNKTLEYKIEILEKTTTIYEEDKRNLQQELETQNQKLQRQFSDKRRLEARLQGMVTETTMKWEKECERRVAAKQLEMQNKLWVKDEKLKQLKAIVTEPKTEKPERPSRERDREKVTQRSVSPSPVPLSSNYIAQISNGQQLMSQPQLHRRSNSCSSISVASCISEWEQKIPTYNTPLKVTSIARRRQQEPGQSKTCIVSDRRRGMYWTEGREVVPTFRNEIEIEEDHCGRLLFQPDQNAPPIRLRHRRSRSAGDRWVDHKPASNMQTETVMQPHVPHAITVSVANEKALAKCEKYMLTHQELASDGEIETKLIKGDIYKTRGGGQSVQFTDIETLKQESPNGSRKRRSSTVAPAQPDGAESEWTDVETRCSVAVEMRAGSQLGPGYQHHAQPKRKKP
B4: FAM83G (protein, UniProt A6ND36 2-823, looked up)
Protein FAM83G: AFSQVQCLDDNHVNWRSSESKPEFFYSEEQRLALEALVARGRDAFYEVLKRENIRDFLSELELKRILETIEVYDPGSEDPRGTGPSQGPEDNGVGDGEEASGADGVPIEAEPLPSLEYWPQKSDRSIPQLDLGWPDTIAYRGVTRASVYMQPPIDGQAHIKEVVRKMISQAQKVIAVVMDMFTDVDIFKDLLDAGFKRKVAVYIIVDESNVKYFLHMCERACMHLGHLKNLRVRSSGGTEFFTRSATKFKGALAQKFMFVDGDRAVCGSYSFTWSAARTDRNVISVLSGQVVEMFDRQFQELYLMSHSVSLKGIPMEKEPEPEPIVLPSVVPLVPAGTVAKKLVNPKYALVKAKSVDEIAKISSEKQEAKKPLGLKGPALAEHPGELPELLPPIHPGLLHLERANMFEYLPTWVEPDPEPGSDILGYINIIDPNIWNPQPSQMNRIKIRDTSQASAQHQLWKQSQDSRPRPEPCPPPEPSAPQDGVPAENGLPQGDPEPLPPVPKPRTVPVADVLARDSSDIGWVLELPKEEAPQNGTDHRLPRMAGPGHAPLQRQLSVTQDDPESLGVGLPNGLDGVEEEDDDDYVTLSDQDSHSGSSGRGPGPRRPSVASSVSEEYFEVREHSVPLRRRHSEQVANGPTPPPRRQLSAPHITRGTFVGPQGGSPWAQSRGREEADALKRMQAQRSTDKEAQGQQFHHHRVPASGTRDKDGFPGPPRYRSAADSVQSSTRNAGPAMAGPHHWQAKGGQVPRLLPDPGSPRLAQNARPMTDGRATEEHPSPFGIPYSKLSQSKHLKARTGGSQWASSDSKRRAQAPRDRKDP
B5: TP53BP2 (protein, UniProt Q13625 1-1128, looked up)
Apoptosis-stimulating of p53 …: MMPMFLTVYLSNNEQHFTEVPVTPETICRDVVDLCKEPGESDCHLAEVWCGSERPVADNERMFDVLQRFGSQRNEVRFFLRHERPPGRDIVSGPRSQDPSLKRNGVKVPGEYRRKENGVNSPRMDLTLAELQEMASRQQQQIEAQQQLLATKEQRLKFLKQQDQRQQQQVAEQEKLKRLKEIAENQEAKLKKVRALKGHVEQKRLSNGKLVEEIEQMNNLFQQKQRELVLAVSKVEELTRQLEMLKNGRIDSHHDNQSAVAELDRLYKELQLRNKLNQEQNAKLQQQRECLNKRNSEVAVMDKRVNELRDRLWKKKAALQQKENLPVSSDGNLPQQAASAPSRVAAVGPYIQSSTMPRMPSRPELLVKPALPDGSLVIQASEGPMKIQTLPNMRSGAASQTKGSKIHPVGPDWSPSNADLFPSQGSASVPQSTGNALDQVDDGEVPLREKEKKVRPFSMFDAVDQSNAPPSFGTLRKNQSSEDILRDAQVANKNVAKVPPPVPTKPKQINLPYFGQTNQPPSDIKPDGSSQQLSTVVPSMGTKPKPAGQQPRVLLSPSIPSVGQDQTLSPGSKQESPPAAAVRPFTPQPSKDTLLPPFRKPQTVAASSIYSMYTQQQAPGKNFQQAVQSALTKTHTRGPHFSSVYGKPVIAAAQNQQQHPENIYSNSQGKPGSPEPETEPVSSVQENHENERIPRPLSPTKLLPFLSNPYRNQSDADLEALRKKLSNAPRPLKKRSSITEPEGPNGPNIQKLLYQRTTIAAMETISVPSYPSKSASVTASSESPVEIQNPYLHVEPEKEVVSLVPESLSPEDVGNASTENSDMPAPSPGLDYEPEGVPDNSPNLQNNPEEPNPEAPHVLDVYLEEYPPYPPPPYPSGEPEGPGEDSVSMRPPEITGQVSLPPGKRTNLRKTGSERIAHGMRVKFNPLALLLDSSLEGEFDLVQRIIYEVDDPSLPNDEGITALHNAVCAGHTEIVKFLVQFGVNVNAADSDGWTPLHCAASCNNVQVCKFLVESGAAVFAMTYSDMQTAADKCEEMEEGYTQCSQFLYGVQEKMGIMNKGVIYALWDYEPQNDDELPMKEGDCMTIIHREDEDEIEWWWARLNDKEGYVPRNLLGLYPRIKPRQRSLA
B6: MTMR3 (protein, UniProt Q13615 1-1198, looked up)
Phosphatidylinositol-3,5-bisph …: MDEETRHSLECIQANQIFPRKQLIREDENLQVPFLELHGESTEFVGRAEDAIIALSNYRLHIKFKESLVNVPLQLIESVECRDIFQLHLTCKDCKVIRCQFSTFEQCQEWLKRLNNAIRPPAKIEDLFSFAYHAWCMEVYASEKEQHGDLCRPGEHVTSRFKNEVERMGFDMNNAWRISNINEKYKLCGSYPQELIVPAWITDKELESVSSFRSWKRIPAVIYRHQSNGAVIARCGQPEVSWWGWRNADDEHLVQSVAKACASDSRSSGSKLSTRNTSRDFPNGGDLSDVEFDSSLSNASGAESLAIQPQKLLILDARSYAAAVANRAKGGGCECPEYYPNCEVVFMGMANIHSIRRSFQSLRLLCTQMPDPGNWLSALESTKWLHHLSVLLKSALLVVHAVDQDQRPVLVHCSDGWDRTPQIVALAKLLLDPYYRTIEGFQVLVEMEWLDFGHKFADRCGHGENSDDLNERCPVFLQWLDCVHQLQRQFPCSFEFNEAFLVKLVQHTYSCLFGTFLCNNAKERGEKHTQERTCSVWSLLRAGNKAFKNLLYSSQSEAVLYPVCHVRNLMLWSAVYLPCPSPTTPVDDSCAPYPAPGTSPDDPPLSRLPKTRSYDNLTTACDNTVPLASRRCSDPSLNEKWQEHRRSLELSSLAGPGEDPLSADSLGKPTRVPGGAELSVAAGVAEGQMENILQEATKEESGVEEPAHRAGIEIQEGKEDPLLEKESRRKTPEASAIGLHQDPELGDAALRSHLDMSWPLFSQGISEQQSGLSVLLSSLQVPPRGEDSLEVPVEQFRIEEIAEGREEAVLPIPVDAKVGYGTSQSCSLLPSQVPFETRGPNVDSSTDMLVEDKVKSVSGPQGHHRSCLVNSGKDRLPQTMEPSPSETSLVERPQVGSVVHRTSLGSTLSLTRSPCALPLAECKEGLVCNGAPETENRASEQPPGLSTLQMYPTPNGHCANGEAGRSKDSLSRQLSAMSCSSAHLHSRNLHHKWLHSHSGRPSATSSPDQPSRSHLDDDGMSVYTDTIQQRLRQIESGHQQEVETLKKQVQELKSRLESQYLTSSLHFNGDFGDEVTSIPDSESNLDQNCLSRCSTEIFSEASWEQVDKQDTEMTRWLPDHLAAHCYACDSAFWLASRKHHCRNCGNVFCSSCCNQKVPVPSQQLFEPSRVCKSCYSSLHPTSSSIDLELDKPIAATSN

Each molecule was assayed on GFP-14-3-3β (assay: GFP-14-3-3β co-IP with LC-MS/MS, untreated GFP-14-3-3β versus GFP control (14-3-3 interactome)). Settings: pairwise comparison untreated GFP-14-3-3β vs GFP, student's t-test; 3 replicates each; LC-MS/MS label-free quantification.
Assay type: binding, human

Molecule | Difference (log2), untreated vs GFP [log2]
B1 | 4.101
B2 | 3.78
B3 | 6.386
B4 | 4.695
B5 | 3.807
B6 | 4.385

What follows are molecules tested on GFP-14-3-3β and its binding proteins (assay: GFP-14-3-3β co-IP with LC-MS/MS label-free quantification, untreated versus PP1c-treated). Settings: GFP-14-3-3β co-IP, PP1vsUntrted, Perseus raw output, LFQ intensity difference.
Parameters: species or system human

Difference | Molecule
-4.783 | B4

Same assay, conditions: pairwise comparison PP1 vs untreated, student's t-test; 3 replicates each; LC-MS/MS label-free quantification

Difference (log2), PP1 vs untreated [log2] | Molecule
-5.046 | B1
-4.778 | B2
-4.537 | B3
-4.783 | B4
-4.694 | B5
-4.593 | B6
